# Results published in patent US20140031283A1, “ANTICANCER FUSION PROTEIN” (ADAMED SP. Z O.O., priority 2011, published 2014).
# Where “and” joins values, the source holds several entries; their conditions need not be identical. Identical values can stand only once.
# B1: Ex. 17: fusion protein: 13-amino acid fragment of tubulin with 6 arginine residues at N-terminus of TRAIL121-281, uPA and MMP sites (protein)
# chain: FRRKAFLHWYTGRRRRRRRRVVRPLGLAGRVAAHITGTRGRSNTLSSPNSKNEKALGRKINSWESSRSGHSFLSNLHLRNGELVIHEKGFYYIYSQTYFRFQEEIKENTKNDKQMVQYIYKYTSYPDPILLMKSARNSCWSKDAEYGLYSIYQGGIFELKENDRIFVSVTNEHLIDMDHEASFFGAFLVG
# modifications: synthesized, a fusion protein comprising: a fragment of TRAIL protein, a fragment of tubulin peptide, cleavage sites recognized by urokinase uPA and metalloprotease MMP and an arginine transporting domain.
# notes: fusion protein: 13-amino acid fragment of tubulin with 6 arginine residues at N-terminus of TRAIL121-281, uPA and MMP sites
# B2: Ex. 2^a: fusion protein: 8-amino acid fragment of human fetoprotein (SEQ. No. 28) at N-terminus of TRAIL114-281, uPA cleavage site (protein)
# chain: EMTPVNPGRVVRERGPQRVAAHITGTRGRSNTLSSPNSKNEKALGRKINSWESSRSGHSFLSNLHLRNGELVIHEKGFYYIYSQTYFRFQEEIKENTKNDKQMVQYIYKYTSYPDPILLMKSARNSCWSKDAEYGLYSIYQGGIFELKENDRIFVSVTNEHLIDMDHEASFFGAFLVG
# modifications: synthesized, a fusion protein comprising: a fragment of TRAIL protein, a fragment of human fetoprotein and a cleavage site recognized by urokinase uPA.
# B3: Ex. 14: fusion protein: 13-amino acid fragment of MEK-1 protein with antennapedia sequence at C-terminus of TRAIL121-281, MMP and uPA sites (protein)
# chain: RVAAHITGTRGRSNTLSSPNSKNEKALGRKINSWESSRSGHSFLSNLHLRNGELVIHEKGFYYIYSQTYFRFQEEIKENTKNDKQMVQYIYKYTSYPDPILLMKSARNSCWSKDAEYGLYSIYQGGIFELKENDRIFVSVTNEHLIDMDHEASFFGAFLVGGSPLGLAGRVVRDRQIKIWFQNRRMKWKKGMPKKKPTPIQLN
# modifications: synthesized, a fusion protein comprising: a fragment of TRAIL protein, a fragment of MEK-1 protein - an inhibitor of ERK activation, cleavage sites recognized by uPA and MMP, an antennapedia transporting domain and a glycine- cysteine linker.
# Columns and labels:
# HT-29 = assay: MTT cytotoxicity test, HT-29 (human colorectal cancer); format: cell-based; settings: Table 4, mean/SD part; listed as Ex. 17^a
# Excerpt: (§1) MTT assay is a colorimetric assay used to measure proliferation, viability and cytotoxicity of cells. It consists in decomposition of a yellow tetrazolium salt MTT (4,5-dimethyl-2-thiazolyl)-2,5-diphenyltetrazolium bromide) to the water-insoluble purple dye formazan by mitochondrial enzyme succinate-tetrazolium reductase 1. MTT reduction occurs only in living cells. Data analysis consists in determining IC50 concentration of the protein (in ng/ml), at which the 50% reduction in the number of cells occurs in the population treated compared to control cells. Results were analyzed using GraphPad Prism 5.0 software. The test was performed according to the literature descriptions (Cells, J E, (1998). Cell Biology, a Laboratory Handbook, second edition, Academic Press, San Diego; Yang, Y., Koh, L W, Tsai, J H., (2004); Involvement of viral and chemical factors with oral cancer in Taiwan, Jpn J Clin Oncol, 34 (4), 176-183). Cell culture medium was diluted to a defined density (10^4-10^5 cells per 100 μl). Then 100 μl of appropriately diluted cell suspension was applied to a 96-well plate in triplicates. […] After stirring, the absorbance was measured at 570 nm (reference filter 690 nm). […]
# MES-SA/Dx5 = assay: MTT cytotoxicity test, MES-SA/Dx5 (multidrug-resistant human uterine sarcoma); format: cell-based; settings: for MES-SA/Dx5 mean (IC50): Table 4, mean/SD part
# Excerpt: (§2) MTT assay is a colorimetric assay used to measure proliferation, viability and cytotoxicity of cells. It consists in decomposition of a yellow tetrazolium salt MTT (4,5-dimethyl-2-thiazolyl)-2,5-diphenyltetrazolium bromide) to the water-insoluble purple dye formazan by mitochondrial enzyme succinate-tetrazolium reductase 1. MTT reduction occurs only in living cells. Data analysis consists in determining IC50 concentration of the protein (in ng/ml), at which the 50% reduction in the number of cells occurs in the population treated compared to control cells. Results were analyzed using GraphPad Prism 5.0 software. The test was performed according to the literature descriptions (Cells, J E, (1998). Cell Biology, a Laboratory Handbook, second edition, Academic Press, San Diego; Yang, Y., Koh, L W, Tsai, J H., (2004); Involvement of viral and chemical factors with oral cancer in Taiwan, Jpn J Clin Oncol, 34 (4), 176-183). Cell culture medium was diluted to a defined density (10^4-10^5 cells per 100 μl). Then 100 μl of appropriately diluted cell suspension was applied to a 96-well plate in triplicates. Thus prepared cells were incubated for 24 h at 37° C. in 5% or 10% CO2, depending on the medium used, and then to the cells (in 100 μl of medium) further 100 μl of the medium containing various concentrations of tested proteins were added. In the case of combination hTRAIL114-281 and p21WAF effector protein, 100 μl of the medium containing mixture of hTRAIL114-281 and p21WAF effector protein in molar ratio 1:1 was added. After incubation of the cells with tested proteins over the period of next 72 hours, which is equivalent to 3-4 times of cell division, the medium with the test protein was added with […] of MTT working solution [5 mg/ml], and incubation was continued for 3 h at 37° C. in 5% CO2. Then the medium with MTT solution was removed, and formazan crystals were dissolved by adding 100 μl of DMSO. After stirring, the absorbance was measured at 570 nm (reference filter 690 nm).
# (§3) The results of in vitro cytotoxicity tests are summarized as IC50 values (ng/ml), which corresponds to the protein concentration at which the cytotoxic effect of fusion proteins is observed at the level of 50% with respect to control cells treated only with solvent. Each experiment represents the average value of at least two independent experiments performed in triplicates. As a criterion of lack of activity of protein preparations the IC50 limit of 2000 ng/ml was adopted.
# Cells selected for this test included tumor cell lines that are naturally resistant to TRAIL protein (the criterion of natural resistance to TRAIL: IC50 for TRAIL protein >2000), as well as tumor cell lines sensitive to TRAIL protein and resistant to doxorubicin line MES-SA/DX5 as a cancer line resistant to conventional anticancer medicaments.
# SK-MES-1 = assay: MTT cytotoxicity test, SK-MES-1 (human lung cancer); format: cell-based; settings: for SK-MES-1 mean (IC50): Table 4, mean/SD part
# Excerpt: as §2, §3
# A549 = assay: MTT cytotoxicity test, A549 (human lung cancer); format: cell-based
# Excerpt: as §2, §3
# [1] = tested on: human lung cancer NCI-H460-Luc2; assay: NCI-H460-Luc2 lung cancer xenograft in Crl:CD1-Foxn1nu 1 mice; format: in vivo; settings: NCI-H460-Luc2, Crl:CD1-Foxn1nu 1 mice, 20 mg/kg i.v. six times every second day, 30th day
# Description: (§4) Antitumor activity of protein preparations was tested in a mouse model of human colon cancer HCT116, human colon cancer Colo205, human colon cancer model SW620, human liver cancer model HepG2, and human lung cancer models NCI-H460 and NCI-H460-Luc2.
# (§5) The HCT116 (in mice Crl:CD1-Foxn1^nu 1), Colo205, NCI-H460, NCI-H460-Luc2 cells were maintained in RPMI 1640 medium (Hyclone, Logan, Utah, USA) mixed in the ratio of 1:1 with Opti-MEM (Invitrogen, Cat.22600-134) supplemented with 10% fetal calf serum and 2 mM glutamine. On the day of mice grafting, the cells were detached from the support by washing the cells with trypsin (Invitrogen), then the cells were centrifuged at 1300 rpm, 4° C., 8 min., suspended in HBSS buffer (Hanks medium), counted and diluted to the concentration of 25×10^6 cells/ml.
# (§6) Examination of antitumor activity of proteins of the invention was conducted on 7-9 week-old CD-nude (Crl:CD1-Foxn1^nu 1) or 4-6 week-old Crl:SHO-Prkdc^scidHr^hr mice obtained from Charles River Germany. Mice were kept under specific pathogen-free conditions with free access to food and demineralised water (ad libitum). All experiments on animals were carried in accordance with the guidelines: “Interdisciplinary Principles and Guidelines for the Use of Animals in Research. […]
# NIH: OVCAR-3 = assay: MTT cytotoxicity test, NIH: OVCAR-3 (human ovarian cancer); format: cell-based; settings: Table 4, mean/SD part
# Excerpt: as §1
# NCI-H460 = settings: Table 4, mean/SD part
# Description: Data analysis consists in determining IC50 concentration of the protein (in ng/ml), at which the 50% reduction in the number of cells occurs in the population treated compared to control cells. Results were analyzed using GraphPad Prism 5.0 software. […] Cell culture medium was diluted to a defined density (10^4-10^5 cells per 100 μl). Then 100 μl of appropriately diluted cell suspension was applied to a 96-well plate in triplicates. Thus prepared cells were incubated for 24 h at 37° C. in 5% or 10% CO2, depending on the medium used, and then to the cells (in 100 μl of medium) further 100 μl of the medium containing various concentrations of tested proteins were added. […] After incubation of the cells with tested proteins over the period of next 72 hours, which is equivalent to 3-4 times of cell division, the medium with the test protein was added with 20 ml of MTT working solution [5 mg/ml], and incubation was continued for 3 h at 37° C. in 5% CO2. Then the medium with MTT solution was removed, and formazan crystals were dissolved by adding 100 μl of DMSO. After stirring, the absorbance was measured at 570 nm (reference filter 690 nm).
# [2] = tested on: human colon cancer HCT116; assay: HCT116 colon cancer xenograft in Crl:CD1-Foxn1^nu 1 mice; format: in vivo; settings: HCT116, Crl:CD1-Foxn1^nu 1 mice, 10 mg/kg i.v., 10 daily applications with a two-day break after the first 5, 27th day
# Description: as §4, §5, §6
# UM-UC-3 = assay: MTT cytotoxicity test, UM-UC-3 (human bladder cancer); format: cell-based; settings: Table 4, mean/SD part
# Excerpt: as §1
# [3] = tested on: TRAIL sensitive cell lines; assay: in vitro cytotoxicity tests, TRAIL sensitive cell lines; format: cell-based; settings: continuous incubation over 72 h, test MTT; versus rhTRAIL 95-281 (cell line not given)
# Excerpt: as §2, with “nm). […]” for “nm).”
# MES-SA = assay: MTT cytotoxicity test, MES-SA (human uterine sarcoma); format: cell-based; settings: continuous incubation over 72 h, test MTT
# Excerpt: as §2, §3
# MCF10A = assay: MTT cytotoxicity test, MCF10A (mammary epithelial cells); format: cell-based; settings: continuous incubation over 72 h, test MTT
# Excerpt: as §2, §3
# [4] = continuous incubation over 72 h, test MTT
Molecule,HT 29 mean (IC50) (HT-29),MES-SA/Dx5 mean (IC50) (MES-SA/Dx5; listed as Ex. 17^a),SK-MES-1 mean (IC50) (SK-MES-1) [µg/mL],"A549 mean (IC50) (A549; Table 4, mean/SD part) [µg/mL]",tumor growth inhibition (TGI) relative to the control [1] [%],OVCAR-3 mean (IC50) (NIH: OVCAR-3) [µg/mL],NCI-H460 mean (IC50) (NCI-H460) [µg/mL],tumor growth inhibition (TGI) relative to the control [2] [%],"HCT116 mean (IC50) (HCT-116; Table 4, mean/SD part)",MES-SA/Dx5 mean (IC50) (MES-SA/Dx5) [µg/mL],UM-UC-3 mean (IC50) (UM-UC-3) [µg/mL],HCT116 IC50 (HCT-116; [4]) [µg/mL],MES-SA/Dx5 IC50 (MES-SA/Dx5; [4]) [µg/mL],IC50 [3] [µg/mL],MES-SA IC50 (MES-SA) [µg/mL],MCF10A IC50 (MCF10A) [µg/mL],SK-MES-1 IC50 (SK-MES-1; [4]) [µg/mL],A549 IC50 (A549; [4]) [µg/mL]
B1,6.808 µg/mL and 7.818 µg/mL,0.07596 µg/mL and 0.04426 µg/mL,0.08119,2.887,–,–,–,–,–,–,–,–,–,–,–,–,–,–
B2,–,–,0.01888,–,81.3,0.0261,4.246,71.2,0.06 µg/mL and 0.06087 µg/mL,0.01896,0.03506,–,–,–,–,–,–,–
B3,–,–,–,–,–,–,–,–,–,–,–,0.1235,0.01373,0.049,0.2312,>2,0.02848,1.767
